B1: NIgG4D2A1(G4S)2 (Fc fusion)
chain 1: DVQLQESGGGLVEAGGSLRLSCVASGRTFSGWSMGWFRQAPGKEREFVAAISWVGSWIGGTVYSNSVKGRFTISRDNARTTVYLQMNSLKPEDTAVYFCAAANSETPRIFASEYDYWGQGTQVTVSGGGGSGGGGSGPPCPPCPAPEFLGGPSVFLFPPKPKDTLMISRTPEVTCVVVDVSQEDPEVQFNWYVDGVEVHNAKTKPREEQFNSTYRVVSVLTVLHQDWLNGKEYKCKVSNKGLPSSIEKTISKAKGQPREPQVYTLPPCQEEMTKNQVSLWCLVKGFYPSDIAVEWESNGQPENNYKTTPPVLDSDGSFFLYSRLTVDKSRWQEGNVFSCSVMHEALHNHYTQKSLSLSLGK
chain 2: EVQLLESGGGLVQPGGSLRLSCAASGFTFGNYDMAWVRQAPGKRPEWVSSIDTGGDITHYADSVKGRFTISRDNAKNTLYLQMNSLRPEDTAVYWCATDEEYALGPNEFDYYGQGTLVTVSSGGGGSGGGGSGPPCPPCPAPEFLGGPSVFLFPPKPKDTLMISRTPEVTCVVVDVSQEDPEVQFNWYVDGVEVHNAKTKPREEQFNSTYRVVSVLTVLHQDWLNGKEYKCKVSNKGLPSSIEKTISKAKGQPREPQVCTLPPSQEEMTKNQVSLSCAVKGFYPSDIAVEWESNGQPENNYKTTPPVLDSDGSFFLVSRLTVDKSRWQEGNVFSCSVMHEALHNHYTQKSLSLSLGK
B2: NIgG4D2A1(G4S)3 (Fc fusion)
chain 1: DVQLQESGGGLVEAGGSLRLSCVASGRTFSGWSMGWFRQAPGKEREFVAAISWVGSWIGGTVYSNSVKGRFTISRDNARTTVYLQMNSLKPEDTAVYFCAAANSETPRIFASEYDYWGQGTQVTVSGGGGSGGGGSGGGGSGPPCPPCPAPEFLGGPSVFLFPPKPKDTLMISRTPEVTCVVVDVSQEDPEVQFNWYVDGVEVHNAKTKPREEQFNSTYRVVSVLTVLHQDWLNGKEYKCKVSNKGLPSSIEKTISKAKGQPREPQVYTLPPCQEEMTKNQVSLWCLVKGFYPSDIAVEWESNGQPENNYKTTPPVLDSDGSFFLYSRLTVDKSRWQEGNVFSCSVMHEALHNHYTQKSLSLSLGK
chain 2: EVQLLESGGGLVQPGGSLRLSCAASGFTFGNYDMAWVRQAPGKRPEWVSSIDTGGDITHYADSVKGRFTISRDNAKNTLYLQMNSLRPEDTAVYWCATDEEYALGPNEFDYYGQGTLVTVSSGGGGSGGGGSGGGGSGPPCPPCPAPEFLGGPSVFLFPPKPKDTLMISRTPEVTCVVVDVSQEDPEVQFNWYVDGVEVHNAKTKPREEQFNSTYRVVSVLTVLHQDWLNGKEYKCKVSNKGLPSSIEKTISKAKGQPREPQVCTLPPSQEEMTKNQVSLSCAVKGFYPSDIAVEWESNGQPENNYKTTPPVLDSDGSFFLVSRLTVDKSRWQEGNVFSCSVMHEALHNHYTQKSLSLSLGK
B3: CIgG4D2A1(G4S)1 (Fc fusion)
chain 1: GPPCPPCPAPEFLGGPSVFLFPPKPKDTLMISRTPEVTCVVVDVSQEDPEVQFNWYVDGVEVHNAKTKPREEQFNSTYRVVSVLTVLHQDWLNGKEYKCKVSNKGLPSSIEKTISKAKGQPREPQVYTLPPCQEEMTKNQVSLWCLVKGFYPSDIAVEWESNGQPENNYKTTPPVLDSDGSFFLYSRLTVDKSRWQEGNVFSCSVMHEALHNHYTQKSLSLSLGKGGGGSDVQLQESGGGLVEAGGSLRLSCVASGRTFSGWSMGWFRQAPGKEREFVAAISWVGSWIGGTVYSNSVKGRFTISRDNARTTVYLQMNSLKPEDTAVYFCAAANSETPRIFASEYDYWGQGTQVTVS
chain 2: GPPCPPCPAPEFLGGPSVFLFPPKPKDTLMISRTPEVTCVVVDVSQEDPEVQFNWYVDGVEVHNAKTKPREEQFNSTYRVVSVLTVLHQDWLNGKEYKCKVSNKGLPSSIEKTISKAKGQPREPQVCTLPPSQEEMTKNQVSLSCAVKGFYPSDIAVEWESNGQPENNYKTTPPVLDSDGSFFLVSRLTVDKSRWQEGNVFSCSVMHEALHNHYTQKSLSLSLGKGGGGSEVQLLESGGGLVQPGGSLRLSCAASGFTFGNYDMAWVRQAPGKRPEWVSSIDTGGDITHYADSVKGRFTISRDNAKNTLYLQMNSLRPEDTAVYWCATDEEYALGPNEFDYYGQGTLVTVSS
B4: NIgG4D2A1(G4S)1 (Fc fusion)
chain 1: DVQLQESGGGLVEAGGSLRLSCVASGRTFSGWSMGWFRQAPGKEREFVAAISWVGSWIGGTVYSNSVKGRFTISRDNARTTVYLQMNSLKPEDTAVYFCAAANSETPRIFASEYDYWGQGTQVTVSGGGGSGPPCPPCPAPEFLGGPSVFLFPPKPKDTLMISRTPEVTCVVVDVSQEDPEVQFNWYVDGVEVHNAKTKPREEQFNSTYRVVSVLTVLHQDWLNGKEYKCKVSNKGLPSSIEKTISKAKGQPREPQVYTLPPCQEEMTKNQVSLWCLVKGFYPSDIAVEWESNGQPENNYKTTPPVLDSDGSFFLYSRLTVDKSRWQEGNVFSCSVMHEALHNHYTQKSLSLSLGK
chain 2: EVQLLESGGGLVQPGGSLRLSCAASGFTFGNYDMAWVRQAPGKRPEWVSSIDTGGDITHYADSVKGRFTISRDNAKNTLYLQMNSLRPEDTAVYWCATDEEYALGPNEFDYYGQGTLVTVSSGGGGSGPPCPPCPAPEFLGGPSVFLFPPKPKDTLMISRTPEVTCVVVDVSQEDPEVQFNWYVDGVEVHNAKTKPREEQFNSTYRVVSVLTVLHQDWLNGKEYKCKVSNKGLPSSIEKTISKAKGQPREPQVCTLPPSQEEMTKNQVSLSCAVKGFYPSDIAVEWESNGQPENNYKTTPPVLDSDGSFFLVSRLTVDKSRWQEGNVFSCSVMHEALHNHYTQKSLSLSLGK
B5: NIgG4D2A1(RS) (Fc fusion)
chain 1: DVQLQESGGGLVEAGGSLRLSCVASGRTFSGWSMGWFRQAPGKEREFVAAISWVGSWIGGTVYSNSVKGRFTISRDNARTTVYLQMNSLKPEDTAVYFCAAANSETPRIFASEYDYWGQGTQVTVSRSGPPCPPCPAPEFLGGPSVFLFPPKPKDTLMISRTPEVTCVVVDVSQEDPEVQFNWYVDGVEVHNAKTKPREEQFNSTYRVVSVLTVLHQDWLNGKEYKCKVSNKGLPSSIEKTISKAKGQPREPQVYTLPPCQEEMTKNQVSLWCLVKGFYPSDIAVEWESNGQPENNYKTTPPVLDSDGSFFLYSRLTVDKSRWQEGNVFSCSVMHEALHNHYTQKSLSLSLGK
chain 2: EVQLLESGGGLVQPGGSLRLSCAASGFTFGNYDMAWVRQAPGKRPEWVSSIDTGGDITHYADSVKGRFTISRDNAKNTLYLQMNSLRPEDTAVYWCATDEEYALGPNEFDYYGQGTLVTVSSRSGPPCPPCPAPEFLGGPSVFLFPPKPKDTLMISRTPEVTCVVVDVSQEDPEVQFNWYVDGVEVHNAKTKPREEQFNSTYRVVSVLTVLHQDWLNGKEYKCKVSNKGLPSSIEKTISKAKGQPREPQVCTLPPSQEEMTKNQVSLSCAVKGFYPSDIAVEWESNGQPENNYKTTPPVLDSDGSFFLVSRLTVDKSRWQEGNVFSCSVMHEALHNHYTQKSLSLSLGK
B6: CIgG4D2A1(G4S)2 (Fc fusion)
chain 1: GPPCPPCPAPEFLGGPSVFLFPPKPKDTLMISRTPEVTCVVVDVSQEDPEVQFNWYVDGVEVHNAKTKPREEQFNSTYRVVSVLTVLHQDWLNGKEYKCKVSNKGLPSSIEKTISKAKGQPREPQVYTLPPCQEEMTKNQVSLWCLVKGFYPSDIAVEWESNGQPENNYKTTPPVLDSDGSFFLYSRLTVDKSRWQEGNVFSCSVMHEALHNHYTQKSLSLSLGKGGGGSGGGGSDVQLQESGGGLVEAGGSLRLSCVASGRTFSGWSMGWFRQAPGKEREFVAAISWVGSWIGGTVYSNSVKGRFTISRDNARTTVYLQMNSLKPEDTAVYFCAAANSETPRIFASEYDYWGQGTQVTVS
chain 2: GPPCPPCPAPEFLGGPSVFLFPPKPKDTLMISRTPEVTCVVVDVSQEDPEVQFNWYVDGVEVHNAKTKPREEQFNSTYRVVSVLTVLHQDWLNGKEYKCKVSNKGLPSSIEKTISKAKGQPREPQVCTLPPSQEEMTKNQVSLSCAVKGFYPSDIAVEWESNGQPENNYKTTPPVLDSDGSFFLVSRLTVDKSRWQEGNVFSCSVMHEALHNHYTQKSLSLSLGKGGGGSGGGGSEVQLLESGGGLVQPGGSLRLSCAASGFTFGNYDMAWVRQAPGKRPEWVSSIDTGGDITHYADSVKGRFTISRDNAKNTLYLQMNSLRPEDTAVYWCATDEEYALGPNEFDYYGQGTLVTVSS
B7: CIgG4D1A1(G4S)3 (Fc fusion)
chain 1: GPPCPPCPAPEFLGGPSVFLFPPKPKDTLMISRTPEVTCVVVDVSQEDPEVQFNWYVDGVEVHNAKTKPREEQFNSTYRVVSVLTVLHQDWLNGKEYKCKVSNKGLPSSIEKTISKAKGQPREPQVYTLPPCQEEMTKNQVSLWCLVKGFYPSDIAVEWESNGQPENNYKTTPPVLDSDGSFFLYSRLTVDKSRWQEGNVFSCSVMHEALHNHYTQKSLSLSLGKGGGGSGGGGSGGGGSDVQLQESGGGLVQAGGSLRLSCAASGLTFSRCDMGWFRQAPGKEREFVARISANGASTHYADFVKGRFTISRDNAKNTVYLQMNYLKPEDTAVYICAAARVPVTWQLYDYWGQGTQVTVS
chain 2: GPPCPPCPAPEFLGGPSVFLFPPKPKDTLMISRTPEVTCVVVDVSQEDPEVQFNWYVDGVEVHNAKTKPREEQFNSTYRVVSVLTVLHQDWLNGKEYKCKVSNKGLPSSIEKTISKAKGQPREPQVCTLPPSQEEMTKNQVSLSCAVKGFYPSDIAVEWESNGQPENNYKTTPPVLDSDGSFFLVSRLTVDKSRWQEGNVFSCSVMHEALHNHYTQKSLSLSLGKGGGGSGGGGSGGGGSEVQLLESGGGLVQPGGSLRLSCAASGFTFGNYDMAWVRQAPGKRPEWVSSIDTGGDITHYADSVKGRFTISRDNAKNTLYLQMNSLRPEDTAVYWCATDEEYALGPNEFDYYGQGTLVTVSS
B8: CIgG4D2A1(RS) (Fc fusion)
chain 1: GPPCPPCPAPEFLGGPSVFLFPPKPKDTLMISRTPEVTCVVVDVSQEDPEVQFNWYVDGVEVHNAKTKPREEQFNSTYRVVSVLTVLHQDWLNGKEYKCKVSNKGLPSSIEKTISKAKGQPREPQVYTLPPCQEEMTKNQVSLWCLVKGFYPSDIAVEWESNGQPENNYKTTPPVLDSDGSFFLYSRLTVDKSRWQEGNVFSCSVMHEALHNHYTQKSLSLSLGKRSDVQLQESGGGLVEAGGSLRLSCVASGRTFSGWSMGWFRQAPGKEREFVAAISWVGSWIGGTVYSNSVKGRFTISRDNARTTVYLQMNSLKPEDTAVYFCAAANSETPRIFASEYDYWGQGTQVTVS
chain 2: GPPCPPCPAPEFLGGPSVFLFPPKPKDTLMISRTPEVTCVVVDVSQEDPEVQFNWYVDGVEVHNAKTKPREEQFNSTYRVVSVLTVLHQDWLNGKEYKCKVSNKGLPSSIEKTISKAKGQPREPQVCTLPPSQEEMTKNQVSLSCAVKGFYPSDIAVEWESNGQPENNYKTTPPVLDSDGSFFLVSRLTVDKSRWQEGNVFSCSVMHEALHNHYTQKSLSLSLGKRSEVQLLESGGGLVQPGGSLRLSCAASGFTFGNYDMAWVRQAPGKRPEWVSSIDTGGDITHYADSVKGRFTISRDNAKNTLYLQMNSLRPEDTAVYWCATDEEYALGPNEFDYYGQGTLVTVSS

Sequence of mixture of three Der p 2 specific recombinant human IgE clones H10, H12, P4E (human) (P01854 other isoform, or with tags, fused parts or gaps): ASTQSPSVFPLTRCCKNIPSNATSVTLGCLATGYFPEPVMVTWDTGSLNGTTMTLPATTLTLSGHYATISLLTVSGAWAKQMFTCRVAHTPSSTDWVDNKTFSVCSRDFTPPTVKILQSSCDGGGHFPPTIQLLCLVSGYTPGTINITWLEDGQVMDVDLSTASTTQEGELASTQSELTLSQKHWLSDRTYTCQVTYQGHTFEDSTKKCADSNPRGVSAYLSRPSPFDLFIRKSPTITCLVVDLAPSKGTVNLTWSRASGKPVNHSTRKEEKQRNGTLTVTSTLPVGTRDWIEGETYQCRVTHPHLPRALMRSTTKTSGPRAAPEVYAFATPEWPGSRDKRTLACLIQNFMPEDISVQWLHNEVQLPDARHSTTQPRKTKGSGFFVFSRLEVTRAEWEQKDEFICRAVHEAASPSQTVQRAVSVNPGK

This assay addresses mixture of three Der p 2 specific recombinant human IgE clones H10, H12, P4E (human) (UniProt P01854). Kind of assay: RBL-SX38 IgE displacement, FACS.
Turning to B1, the EC50 (usually the concentration needed to bring the measured effect to its halfway point) worked out at 6.3 nM and the Max effect/effect 1 µM is 96%.

For the molecule B2, the EC50 stood at 3.7 nM and the Max effect/effect 1 µM came to 88%.

As for B3, the EC50 was 126 nM and the Max effect/effect 1 µM was determined as 95%.

As for B4, the EC50 came out at 8.7 nM and the Max effect/effect 1 µM amounted to 97%.

Take B5: the EC50 came out at 12.3 nM and the Max effect/effect 1 µM is 97%.

Regarding B6, the EC50 is 39 nM and the Max effect/effect 1 µM was 99%.

On to B7, for which the EC50 was determined as 64.6 nM and the Max effect/effect 1 µM was 96%.

Consider B8, for which the Max effect/effect 1 µM amounted to 6%.

For the origin of these results see patent publication US20250171562A1.
